According to paper PMC8221569 (Molecular Cell, 2021):
Changes are numbered by the printed parent chain. Names may count otherwise. Each block holds one binder with its values, some of them ahead of it.

How the values were obtained:
Conditions in all cases: both partners purified
[1] = target: T1, MCM2 HBD (61–130)–H3.3–H4 complex ( | human, UniProt P49736 61-130; P84243 1-136; P62805 2-103); experiment: pull-down; GST-tagged protein (1.5 nmol) on Glutathione Sepharose 4B, 1.5 nmol histone complex added; 20 mM Tris pH 7.5, 500 mM NaCl, 4°C, 2 hours; washes with 0.5% Triton X-100; SDS-PAGE
T1 construct: histone H3.3, human; histone H4, human; also called pre-assembled MCM2 HBD-H3.3-H4 complexes; MCM2 HBD–H3.3–H4 complex; source: purified as described previously (Huang et al., 2015); copies: + +

[2] = target: T2, human histones H3.3–H4 tetramer (human, UniProt P84243 1-136; P62805 1-103); experiment: ITC; MicroCal PEAQ-ITC, 20°C, 20 mM Tris-HCl pH 7.5, 500 mM NaCl; 300 μM DNAJC9 HBD in the syringe, 30 μM (dimers) H3-H4 in the cell; one set of sites model; n = 3
T2 construct: histone H3.3, human; histone H4, human; methods call it a tetramer; construct as in Huang et al., 2015; also called pre-assembled H3.3-H4; H3.3 WT-H4; source: bacteria, co-expressed and purified (as in Huang et al., 2015; Superdex 200 in 2 M NaCl); copies: 2 + 2

histone H4 (recombinant) [3] = target: T3, histone H4 (recombinant) (human, UniProt P62805 2-103); experiment: crystal structure; DNAJC9 HBD C243S mixed 1:1 with the MCM2 HBD (61–130)–H3.3 (57–135)–H4 complex, gel filtration in 1 M NaCl; PDB 7CJ0, 2.50 Å
histone H4 (recombinant) [4] = target: T3, histone H4 (recombinant); experiment: crystal structure; DNAJC9 αB C243S mixed 1:1 with the MCM2 HBD (61–130)–H3.3 (57–135)–H4 complex, gel filtration in 500 mM NaCl; PDB 7CIZ, 1.80 Å

binding result [1]: binds
B1: GST-DNAJC9 HBD (histone binding domain, 171–249) (domain or fragment)
chain: EVPSYNAFVKESKQKMNARKRRAQEEAKEAEMSRKELGLDEGVDSLKAAIQSRQKDRQKEMDNFLAQMEAKYCKSSKGG
notes: PDB 7CJ0 holds the same limits with C243S; also called GST-tagged DNAJC9 HBD; DNAJC9 HBD WT; source: E. coli BL21 (DE3)-RIL, purified (Glutathione Sepharose 4B, Superdex 200)

binding result [1]: binds
B2: GST-DNAJC9 HBD Q224A R227A (domain or fragment)
chain: B1 chain with Q54A, R57A
notes: source: E. coli BL21 (DE3)-RIL, purified (Glutathione Sepharose 4B, Superdex 200)

binding result [1]: binds
B3: GST-DNAJC9 HBD F234A L235A (domain or fragment)
chain: B1 chain with F64A, L65A
notes: as for B2

Kd [2]: 55 nM
B4: DNAJC9 HBD (171–249), GST tag removed (domain or fragment)
chain: B1 chain
notes: used in ITC; also called DNAJC9 HBD WT; source: E. coli BL21 (DE3)-RIL, purified (Glutathione Sepharose 4B, 3C protease, Superdex 200)

binding result [1]: binds
B5: GST-DNAJC9 HBD M238A Y242A (domain or fragment)
chain: B1 chain with M68A, Y72A
notes: as for B2

binding result [1]: binds
B6: GST-DNAJC9 HBD 4A1 (E195A E196A E199A A200E) (domain or fragment)
chain: B1 chain with E25A, E26A, E29A, A30E
notes: as for B2

binding result (histone H4 (recombinant) [3]): binds
B7: DNAJC9 HBD C243S (171–249), GST tag removed (domain or fragment)
chain: B1 chain with C73S
notes: crystallized construct; source: E. coli BL21 (DE3)-RIL, purified (Glutathione Sepharose 4B, 3C protease, Superdex 200)

binding result (histone H4 (recombinant) [4]): binds
B8: DNAJC9 αB C243S (204–249), GST tag removed (domain or fragment)
chain: RKELGLDEGVDSLKAAIQSRQKDRQKEMDNFLAQMEAKYSKSSKGG
notes: crystallized construct; also called isolated DNAJC9 αB helix (C243S); source: E. coli BL21 (DE3)-RIL, purified (Glutathione Sepharose 4B, 3C protease, Superdex 200)
